We go through ten molecules from patent US11472855, “RNA-binding protein” (Panitch Schwarze Belisario & Nadel LLP).

Changes are numbered by the printed parent chain.

Details in all cases: label: Alexa680 at 5' and 3'
The target in data set [1] is T1, hPUF_MT(R4→R6_N12C, R6_N12C) (UniProt Q14671 SEQ:1-349).
T1 chain: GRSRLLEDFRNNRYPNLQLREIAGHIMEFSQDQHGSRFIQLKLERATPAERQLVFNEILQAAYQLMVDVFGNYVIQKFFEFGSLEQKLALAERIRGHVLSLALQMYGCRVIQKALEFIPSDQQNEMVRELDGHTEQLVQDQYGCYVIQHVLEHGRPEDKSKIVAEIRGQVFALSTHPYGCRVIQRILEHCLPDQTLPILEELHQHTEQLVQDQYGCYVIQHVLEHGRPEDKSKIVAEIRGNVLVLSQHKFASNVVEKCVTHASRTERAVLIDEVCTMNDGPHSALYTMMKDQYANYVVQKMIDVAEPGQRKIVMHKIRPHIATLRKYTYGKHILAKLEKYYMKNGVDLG
As to the kind of experiment: EMSA.

The target in data set [2] is T2, hPUF_MT(R5:A_13R)3(R6:C_13Y)3.
T2 chain: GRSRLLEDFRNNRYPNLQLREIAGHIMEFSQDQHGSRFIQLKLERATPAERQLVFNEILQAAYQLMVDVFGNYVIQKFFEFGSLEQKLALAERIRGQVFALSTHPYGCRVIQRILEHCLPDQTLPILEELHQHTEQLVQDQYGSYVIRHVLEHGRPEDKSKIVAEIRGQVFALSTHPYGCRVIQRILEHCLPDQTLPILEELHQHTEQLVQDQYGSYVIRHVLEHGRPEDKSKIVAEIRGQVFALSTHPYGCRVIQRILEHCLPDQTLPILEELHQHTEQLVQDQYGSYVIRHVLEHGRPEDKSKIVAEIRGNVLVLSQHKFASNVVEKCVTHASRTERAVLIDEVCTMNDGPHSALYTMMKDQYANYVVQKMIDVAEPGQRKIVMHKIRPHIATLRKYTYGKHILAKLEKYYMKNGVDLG
As to the kind of experiment: EMSA; best of three.

In data set [3] the target is T3, hPUF_MT(R3→R5, R4→R5, R5; all C12S,Q16R).
T3 chain: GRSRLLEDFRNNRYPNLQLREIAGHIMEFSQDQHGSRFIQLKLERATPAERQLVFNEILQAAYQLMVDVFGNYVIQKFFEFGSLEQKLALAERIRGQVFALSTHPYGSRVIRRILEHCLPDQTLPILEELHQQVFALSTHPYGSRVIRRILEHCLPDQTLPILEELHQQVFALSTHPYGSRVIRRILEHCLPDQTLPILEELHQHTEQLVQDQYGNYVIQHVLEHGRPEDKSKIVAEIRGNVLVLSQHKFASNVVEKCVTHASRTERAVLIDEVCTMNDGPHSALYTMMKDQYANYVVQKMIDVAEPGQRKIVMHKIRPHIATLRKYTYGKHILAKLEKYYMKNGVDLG
In words: EMSA; binds only to its target.

For data set [4], the target named is T4, hPUF_MT(R3→R5_C12N, R4→R5_C12N, R5_C12N).
T4 chain: T3 chain with S108N, R112Q, S144N, R148Q, S180N, R184Q
In words: EMSA; binds only to its target.

Data set [5] has as its target T5, hPUF_MT(R3→R5, R4→R5, R5; all C12S,Q16E).
T5 chain: T3 chain with R112E, R148E, R184E
As to the kind of experiment: EMSA; stronger than A-recognising P8.

The target of data set [6] is T6, hPUF_MT(R4→R6_N12S,Q16E, R6_N12S,Q16E) (UniProt Q14671 SEQ:1-349).
T6 chain: T1 chain with C144S, Q148E, C216S, Q220E
As to the kind of experiment: EMSA; comparable to or relatively weaker than WT U recognition.

Data set [7] deals with T5, hPUF_MT(R3→R5, R4→R5, R5; all C12S,Q16E). As to the kind of experiment: EMSA; binds only to its target.
Data set [8] deals with T3, hPUF_MT(R3→R5, R4→R5, R5; all C12S,Q16R). In words: EMSA; stronger than A-recognising P8.
Data set [9] has as its target T7, hPUF_MT(R4→R6_N12S,Q16R, R6_N12S,Q16R) (UniProt Q14671 SEQ:1-349).
T7 chain: T1 chain with C144S, Q148R, C216S, Q220R
As to the kind of experiment: EMSA; comparable to or relatively weaker than WT U recognition.

Data set [10] concerns the target T8, hPUF_MT(R5:G_13R)3(R6:U_13Y)3.
T8 chain: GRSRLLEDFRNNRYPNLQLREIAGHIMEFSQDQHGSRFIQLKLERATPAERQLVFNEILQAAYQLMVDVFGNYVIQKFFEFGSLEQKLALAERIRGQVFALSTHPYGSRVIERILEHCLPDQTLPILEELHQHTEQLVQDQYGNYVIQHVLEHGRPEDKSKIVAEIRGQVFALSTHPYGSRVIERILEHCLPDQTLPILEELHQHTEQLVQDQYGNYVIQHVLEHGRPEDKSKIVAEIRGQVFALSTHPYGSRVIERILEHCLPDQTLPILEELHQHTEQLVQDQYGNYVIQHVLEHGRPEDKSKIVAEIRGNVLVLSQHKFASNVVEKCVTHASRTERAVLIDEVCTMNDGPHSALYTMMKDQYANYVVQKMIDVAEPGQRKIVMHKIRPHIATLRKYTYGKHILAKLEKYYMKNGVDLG
In words: EMSA.

The target of data set [11] is T4, hPUF_MT(R3→R5_C12N, R4→R5_C12N, R5_C12N). As to the kind of experiment: EMSA; strongest of the four.
In data set [12] the target is T9, hPUF_MT(R3→R5, R4→R5_R13Y, R5_R13Y).
T9 chain: T3 chain with S108C, R112Q, S144C, R145Y, R148Q, S180C, R181Y, R184Q
As to the kind of experiment: EMSA; H=Y>R>F=W>K.

In a further data set the target is T10, hPUF_MT(R3→R5, R4→R5).
T10 chain: T3 chain with S108C, R112Q, S144C, R148Q, S180C, R184Q
In words: EMSA; A-A stacking: H=Y>R>F=W>K.

Data set [13] concerns the target T11, hPUF_MT(R3→R5, R4→R5_R13H, R5_R13H).
T11 chain: T3 chain with S108C, R112Q, S144C, R145H, R148Q, S180C, R181H, R184Q
In words: EMSA; H=Y>R>F=W>K; Example 5-2 states a different order.

In data set [14] the target is T12, hPUF_MT(R5:A_13R)3(R6:G_13Y)3.
T12 chain: T2 chain with R148E, R220E, R292E
In words: EMSA; best of three.

As for CCAGAAUUGAAAAUAUUCG (ssRNA) [OTS-1819], the binding signal in data set [1] is ~0.01 fold of U-recognising type.

On to CCAGAAUUGCACACAUAUUCG (ssRNA) [OTS-2004 (Example 5-4)], for which the binding result in data set [2] was “binds”.

Turning to CCAGAAUUGUGGGUAUUCG (ssRNA) [OTS-1842], the binding result was “no binding” in [3], “no binding” in data set [4] and “binds” in data set [5].

In the case of CCAGAAUUGGAGAUAUUCG (ssRNA) [OTS-1978], the binding result in data set [6] is “binds”.

Turning to CCAGAAUUGUCCCUAUUCG (ssRNA) [OTS-1843], the binding result in data set [7] is “no binding”; in [4], “no binding”; in data set [8] it was “binds”.

As for CCAGAAUUGCACAUAUUCG (ssRNA) [OTS-1979], the binding result in data set [9] is given as “binds”.

With CCAGAAUUGUGUGUGUAUUCG (ssRNA) [OTS-2004 (Example 5-6)], in data set [10], the binding result is “binds”.

For CCAGAAUUGUUUUUAUUCG (ssRNA) [OTS-1841], the binding result is on record as “binds” in data set [11], “no binding” in data set [7] and “no binding” in data set [3].

For CCAGAAUUGUAAAUAUUCG (ssRNA) [OTS-1759], the binding result in data set [12] is recorded as “binds”; in the data set with hPUF_MT(R3→R5, R4→R5), “binds”; in data set [13], “binds”.

For the molecule CCAGAAUUGGAGAGAUAUUCG (ssRNA) [OTS-2008], the binding result in data set [14] is listed as “binds”.
